Test results reported in patent publication US20250002886.

Test system: T1, MG3-6/3-4 chimera (MG3-6 1-742 + MG3-4 743-1134) (synthetic construct)
T1 sequence: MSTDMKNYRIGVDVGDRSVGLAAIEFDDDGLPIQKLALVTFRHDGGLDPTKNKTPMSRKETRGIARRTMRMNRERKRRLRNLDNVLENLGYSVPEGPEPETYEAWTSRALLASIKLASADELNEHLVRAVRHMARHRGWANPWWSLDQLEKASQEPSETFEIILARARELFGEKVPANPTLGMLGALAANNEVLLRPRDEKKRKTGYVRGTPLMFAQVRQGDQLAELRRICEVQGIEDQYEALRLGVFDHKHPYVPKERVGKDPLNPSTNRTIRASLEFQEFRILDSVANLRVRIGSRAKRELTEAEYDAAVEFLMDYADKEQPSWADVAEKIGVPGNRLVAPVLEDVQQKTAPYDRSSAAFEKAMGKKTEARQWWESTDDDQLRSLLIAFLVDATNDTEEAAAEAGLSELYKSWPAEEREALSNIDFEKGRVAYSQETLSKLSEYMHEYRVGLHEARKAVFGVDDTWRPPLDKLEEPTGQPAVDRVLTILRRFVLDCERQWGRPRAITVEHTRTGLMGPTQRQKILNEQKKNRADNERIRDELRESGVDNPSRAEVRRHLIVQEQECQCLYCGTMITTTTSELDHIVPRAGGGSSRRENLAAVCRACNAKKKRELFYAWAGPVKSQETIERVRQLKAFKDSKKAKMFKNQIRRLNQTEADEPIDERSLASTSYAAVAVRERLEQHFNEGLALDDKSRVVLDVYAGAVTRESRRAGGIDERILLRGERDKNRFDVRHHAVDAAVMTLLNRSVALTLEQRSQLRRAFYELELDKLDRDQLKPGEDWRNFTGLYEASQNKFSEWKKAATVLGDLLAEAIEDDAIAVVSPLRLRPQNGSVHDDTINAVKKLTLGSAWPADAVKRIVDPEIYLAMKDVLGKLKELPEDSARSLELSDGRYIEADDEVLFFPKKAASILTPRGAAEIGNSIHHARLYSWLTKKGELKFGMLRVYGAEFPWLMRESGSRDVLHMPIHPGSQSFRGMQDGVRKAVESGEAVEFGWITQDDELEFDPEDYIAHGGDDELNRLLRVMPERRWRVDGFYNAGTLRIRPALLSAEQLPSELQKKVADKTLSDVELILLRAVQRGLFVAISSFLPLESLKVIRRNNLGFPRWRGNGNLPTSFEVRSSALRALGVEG
Assay: cell_activity
Details: 2'-OMe and PS at termini; Hep3B; 25.0 % in PHH; PAM NNAAA(A/T)N

CCAUCUAUCAGCUGGGAAGAUAGUUGAGAAUCGAAAGAUUCUUAAUAAGGCAUCCUUCCGAUGCUGACUUCUCACCGUCCGUUUUCCAAUAGGAGCGGGCGGUAUGUUUU / CCATCTATCAGCTGGGAAGATATCAAATG / CATTTGATATCTTCCCAGCTGATAGATGG [hH364-32 sgRNA ; human HAO1 hH364-32 target]
activity: 60 % indel
